{
  "source": "the nanobody polyreactivity screen of Harvey et al. (2022)",
  "data": [
    {"test": "yeast display, Sf9 membrane polyspecificity reagent, FACS + sequencing; frameworks hold sequencing errors", "summary_of_the_method": "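A nanobody's polyreactivity label depends on the gate it was sorted from. Yeast display cells were stained with 10% biotinylated, detergent-solubilized Sf9 membrane reagent for 1 hour at 4 °C, enriched on streptavidin microbeads and sorted by FACS. The low and high (top ~1%) gates were set on anti-HA fluorescence for expression and streptavidin fluorescence for reagent binding.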", "values": [
      {"sequence": "QVQLVESGGGLVQAGGSLRVSCAASGIIFNRYAMGWSREAPGKERELVAAITSSGGSTHYADSVKGRFTISRDNAKNTVYLQMNSLKPEDTAVYYCAKQFPYNYRYYLHYYYWGQGTQVTVSS", "polyreactivity (PSR sort gate)": "low polyreactivity"},
      {"sequence": "QVQLVESGGGLVQAGGSLRVSCAASGIIFRYNAMGWSRQAPGKESELVAAITSGGITKYADSVKGRFTISRDNAKNTVYLQMNSLKPEDTAVYYCNAEYGFDRAGSRGEYWGQCTQVTVSS", "polyreactivity (PSR sort gate)": "low polyreactivity"},
      {"sequence": "QVQLVESGGGLVQAGGSLRVSCAASGITSPYNAMGWYRQAPGKERELVAGITSGDSTDYADSVKGRFTISRDNAKNTVYLQMNSLKPEDTAVYYCAADSIRYCDYDYWGHGTQVTVSS", "polyreactivity (PSR sort gate)": "low polyreactivity"},
      {"sequence": "QVQLVESGGGLVQAGGSLRVSCAASGLIFYRYAMGWYRQAPGKERELVAAITTRGGSTYYADSVKGRFTISRDNAKITVYLQMNSLKPEDTAVYYCATYFRAKGYTGRYYYWGQGTQVTVSS", "polyreactivity (PSR sort gate)": "high polyreactivity"},
      {"sequence": "QVQLVESGGGLVQAGGSLRVSCAASGRIFDENAMGWYRPAPGKERELVAAIDWSGGSTYYADSVKGRFTISRDYAKNTVYLQMNRQKPEDTAVYYCNADYYYYVSLGWWSFIVSEYDYWGHGTQVTVSS", "polyreactivity (PSR sort gate)": "low polyreactivity"},
      {"sequence": "QVQLVESGGGLVQAGGSLRVSCAASGRNFYYYAMGGYRQAPGKERELVAAINWSGGGTYYADSVKGRFTISRDNAKNTVYFQMNSLKPEDTAVYYCAAGFRYRYYWGQGTQVTVSS", "polyreactivity (PSR sort gate)": "high polyreactivity"},
      {"sequence": "QVQLVESGGGLVQAGGSLRVSCAASGRTFRPNAMGWYRQAPGKERELVAAISGGGGSTYYADSVKGRFTISRDIAKNTVYLLMNSLKPEVTAVYYCNKVEQGRYGYWGQGTQVTVSS", "polyreactivity (PSR sort gate)": "high polyreactivity"},
      {"sequence": "QVQLVESGGGLVQAGGSLRVSCAASGRTSSINAMGWYREAPGKERELVAVITGRGGSTYYADSVKGRCTISRDNAKNTVYLQINSLKPEDTAVYYCAARRVPSVSGTYDYWGQGTQVTVSS", "polyreactivity (PSR sort gate)": "high polyreactivity"},
      {"sequence": "QVQLVESGGGLVQAGGSLRVSCAASGSIFQANAMGGYRQAPGKERELVAASRWSGGSTNYPDSVKGRFSISRDNAKNTVYLPMNSLKPEDTAVYYCAAKRFSSPYWEYYWGQGTQVTVSS", "polyreactivity (PSR sort gate)": "high polyreactivity"},
      {"sequence": "QVQLVESGGGLVQAGGSLRVSCAASGSNFLGYTMGWYRQAPGKERELVAAINSSGGSTYYADSVKGRFTISRDNAKNNVYLQMNSLKPEDTAVYYCADANSILLFDSWGQGTQVTVSS", "polyreactivity (PSR sort gate)": "low polyreactivity"},
      {"sequence": "QVQLVESGGGLVQAGGSLRVSCAASGSTFQYNAMGWYRQAPGKERELVAVITRRGGRTYYADSVKGRFTISRDNAKNSVYLQLNSLKAEDTAVYYCAAYFDYTHRFYYWGQGTQVTVSS", "polyreactivity (PSR sort gate)": "high polyreactivity"},
      {"sequence": "QVQLVESGGGLVQAGGSLRVSCAASGSTFRRNNMGWYRQAPGKERELVAGISSSGGSTYYADSVKGRFTISRDNAKNTVYLQMNSLKPEDTAVYYCDARFYVSYVGYNYWGQGTQVTVSS", "polyreactivity (PSR sort gate)": "high polyreactivity"},
      {"sequence": "QVQLVESGGGLVQAGGSLRVSCAASGSTFWSYAMGGYRQAPGKARELVAGITQSGGSTYYADSVKGRFTISRDTAKHTLYLQMNSLQPEDTAVYDCAKDGRVSGDFDYWGQGTQGTVSS", "polyreactivity (PSR sort gate)": "low polyreactivity"},
      {"sequence": "QVQLVESGGGLVQAGGSLRVSCAASGYIFYGNTMGWYRQAPGKEWELVAAISYDGGSTYYADSVKGRFTISRDNAKNTVYLQMNSLKPEDTAVYYCAADTFSFRWSDYWGQGTQVTVSS", "polyreactivity (PSR sort gate)": "low polyreactivity"},
      {"sequence": "QVQLVESGGGLVQAGGSLRVSCAASGYTIKYYAMGWYRQAPGKERELVAAISKDGGSTYYADSVKGRFTISRDNAKNTVYLQMNSLKPEDTAVYYCAAKSNVRYGWREFYWGQGTQVTVSS", "polyreactivity (PSR sort gate)": "high polyreactivity"},
      {"sequence": "QVQLVESGGGLVQAGGSLRVSCAAYGRIFLANAMGGYRTAAGKERELVAAISYSGGSTYYADSVKGRFTISRDNAKNTVYLQMNSLKPEDTAVYYCAADAFTWYTGRAWKYYYWGHGTQVTVSS", "polyreactivity (PSR sort gate)": "low polyreactivity"},
      {"sequence": "QVQLVESGGGLVQAGGSLRVSCADSGGIFALNDMGWYRQAPGKERELVAAINGAGTYYADSVKGRFTISRDNAKNTVYLQRNSLKPEDTAVYYCARGSLHWEYARTWTRVEYDYWGQGTQVTVSS", "polyreactivity (PSR sort gate)": "low polyreactivity"},
      {"sequence": "QVQLVESGGGLVQAGGSLRVSCAPSGGTFGYYTMGWYRQAPGTERELVAAISSGGGTDYADSVKGRFTISRDNAKNTVYLQMNSLKPEDTAVYYCNAKWLELHYVFLPSYTMDYWGHGTQVTVSS", "polyreactivity (PSR sort gate)": "low polyreactivity"},
      {"sequence": "QVQLVESGGGLVQAGGSLRVSCAPSGRTFRYNTMGWYRPAPGKERELVARITWSGGSTYYADSVKGRFTISRDNAKNTVYLQMNSLKPEDTAVSYCAAGSGWRFDYWGQGTQVTVSS", "polyreactivity (PSR sort gate)": "low polyreactivity"},
      {"sequence": "QVQLVESGGGLVQAGGSLRVSCASSGFTFVYYAMVWYRQAPGKERELVATISGNGGRTYYADSVKGRFTISRDNAKNTVYLLMHSLKPEDTAVYYSAALLYIRSVGDDYWGQGTKVTVSS", "polyreactivity (PSR sort gate)": "low polyreactivity"},
      {"sequence": "QVQLVESGGGLVQAGGSLSLICAASGFIFYYYAMGWYRQAPGKERELVAGMSRRGGSTYYADSVKGRFTISRDNAKNTVYLQMNSLKPEDTAVYYCAALGDDATSYGYWGQGTQVTVSS", "polyreactivity (PSR sort gate)": "high polyreactivity"},
      {"sequence": "QVQLVESGGGLVQAGGSLSLICAASGRFSNAMGWYIQAPGKERELVAAITLSGTSTYYADSVKGRFTISRDNAKNTVYLQMNSLKTEDTAVYYCAAGSGYGVTWVYSPYTGVDYWGQGTQVTVSS", "polyreactivity (PSR sort gate)": "low polyreactivity"},
      {"sequence": "QVQLVESGGGLVQAGGSLSLICAASGSIFYEYAMGWYRQAPGKEREFVAAISSSGGSTYYADSVKGRFTISRDNAKNTVYLQMNSLKPEYTAVYYCNAQVGGVSIEYDYWGQGTQVTVSS", "polyreactivity (PSR sort gate)": "low polyreactivity"},
      {"sequence": "QVQLVESGGGLVQAGGSLSLSCAASGFIFNYYVMGWYRQAPGKERELVATISWRGGRTYYADSVKGRFTISRDNAKNTVYLQMNSLKPEDTAVYYCAKDSYYFTRYDYWGQGTQVTVSS", "polyreactivity (PSR sort gate)": "low polyreactivity"},
      {"sequence": "QVQLVESGGGLVQAGGSLSLSCAASGFIFPGNAKGWYRQAPGKERELVATISSGGSTKYADSVKGRFTISRDNANNTVYLQMNSLKPEDTAVYYCAARVYLGVFDYYYWGQGTQVTVSS", "polyreactivity (PSR sort gate)": "low polyreactivity"},
      {"sequence": "QVQLVESGGGLVQAGGSLSLSCAASGFIFYGYAMGWYRQAPGKEREIVAAISGRGDRTYYADSVKGRFTISRDNAKNTVYLQMNSLNPEDTAVYYCAALQLRYSGALWYDYWGQGTQVTVSS", "polyreactivity (PSR sort gate)": "high polyreactivity"},
      {"sequence": "QVQLVESGGGLVQAGGSLSLSCAASGFILDYNTKGWYRQAPGKEREVVAAISSSGDTTYYADSVKGRFTISRDNAKYTVYLQMNSLKPEDTAVYYCAREYGDGYEYWVQGTQVTVSS", "polyreactivity (PSR sort gate)": "low polyreactivity"},
      {"sequence": "QVQLVESGGGLVQAGGSLSLSCAASGFTFAKYAMGWYRQAPGKERELVATISWSGGTTSYADSVKGRFTISRDNAKNTVYLQMNSLKPEDTAVYYCAALRYADYDYWGQGTQVTVSS", "polyreactivity (PSR sort gate)": "high polyreactivity"},
      {"sequence": "QVQLVESGGGLVQAGGSLSLSCAASGFTFGTNAMGWYRQAPGKERELVAAISSRGGSTYYADSVKGRFTISRDNAKNTVYLEMNSLKPEDTAVYYCARRVAGRQHEYGYWGLGTQVTVSS", "polyreactivity (PSR sort gate)": "high polyreactivity"},
      {"sequence": "QVQLVESGGGLVQAGGSLSLSCAASGFTFSRYAMGWYRQAPGKERELVAAISDDGGSTYYADSVKGRFTISRDNAKNTVYLQMNSLKPEDTAVYYCAARFYWSYGYWGQGTQVTVSS", "polyreactivity (PSR sort gate)": "high polyreactivity"},
      {"sequence": "QVQLVESGGGLVQAGGSLSLSCAASGGTFSRYGMGWYRQAPGKEREMVAAISRSGGSTYYADSVKWRFTISRDNAKNTVYLQMNSLKPEDTAVYYCAAKLPIPYTTGRYAAMDYWGQGTQVTVSS", "polyreactivity (PSR sort gate)": "high polyreactivity"},
      {"sequence": "QVQLVESGGGLVQAGGSLSLSCAASGGTFTFYAMGWYRQAPGKERELVATINWSGGSTYYADSVKGRFTISRDNAKNTVYIQMNCLKPEDSAVYYCNAAWAYKSVEYWGQGTQVTVSS", "polyreactivity (PSR sort gate)": "low polyreactivity"},
      {"sequence": "QVQLVESGGGLVQAGGSLSLSCAASGIIFIYYGMGWYRQAPGKERELVAAISRSGGRTYYADSVKGRFTISRDNAKNTVYLQMNSLKPEDTAVYYCATTYTPTGFDYWGQGTQVTVSS", "polyreactivity (PSR sort gate)": "high polyreactivity"},
      {"sequence": "QVQLVESGGGLVQAGGSLSLSCAASGIIFYDYAMGWYRQAPGKERELVAAITSGGSTNYADSVKGRFTISRDNAKNTVYLLMNRLKPEVTAVYYCAATYWSWISLRFYWGLGTQVTVSS", "polyreactivity (PSR sort gate)": "low polyreactivity"},
      {"sequence": "QVQLVESGGGLVQAGGSLSLSCAASGIIFYYYAMGWYRQAPGKERELVAAISTSGGRTYYADSVKGRFTISRDNAKNTVYLQMNSMKPEDTAVYYCAADYLKGEEDYWGQGTQVTVSS", "polyreactivity (PSR sort gate)": "low polyreactivity"},
      {"sequence": "QVQLVESGGGLVQAGGSLSLSCAASGIIIRRYAMGWYRQAPRKERELVATITWSGGSTYYADSVKGRFTISRDNAKNTVYLQMNSLKPEDTAVDYCAKLTSYRGRYNYWGQGTQVTVSS", "polyreactivity (PSR sort gate)": "high polyreactivity"},
      {"sequence": "QVQLVESGGGLVQAGGSLSLSCAASGIISTYYVMGWYRQAPGKERELVAAITGGDSSTYYADSVKGRFTISRDNAKNTVYLQMNSLKPEDTAVYYCAKEYYYARGARYDYWGQGTQVTVSS", "polyreactivity (PSR sort gate)": "low polyreactivity"},
      {"sequence": "QVQLVESGGGLVQAGGSLSLSCAASGNIVPSYVMGWYRQAPGKERELVAAITWNGGSTYYADSVKGRFTISRDNAKNTVYLQMNSLKPEDTAVYDCATSGPRLLRYYSSSSPSYDYWGQGTQVTVSS", "polyreactivity (PSR sort gate)": "low polyreactivity"},
      {"sequence": "QVQLVESGGGLVQAGGSLSLSCAASGRIFATNAMGWYRQAPGKERELVATITRSDGRTYYAVSVKGRFTISRDNAMNSVYLEMNSLKPEDTAVYFCAAYYSDTEPGYREYDYWGQGTQVTLSS", "polyreactivity (PSR sort gate)": "low polyreactivity"},
      {"sequence": "QVQLVESGGGLVQAGGSLSLSCAASGRIFRYNAMGWYRQAPGKERELVAGINGRSGSTTYADSVKGRFTISRDNAKNTVYLQMNSLKPEDTAVYYCAIVYGGYHYAFRSSRGMGYWGQGTQVTVSS", "polyreactivity (PSR sort gate)": "high polyreactivity"},
      {"sequence": "QVQLVESGGGLVQAGGSLSLSCAASGRLFARNTMGWYRQAPGKEREFVAAIDRRGGSTYYADSVKGRFTISRDNAKNTVYLQMNSLKPEDTAVYYCNKDTRRSGRMDSWGQGTEVTVSS", "polyreactivity (PSR sort gate)": "low polyreactivity"},
      {"sequence": "QVQLVESGGGLVQAGGSLSLSCAASGRNFYANTMGWYRQAPGKERELVASISYSSGSTYADSVKGRFTISRDNAKNTVYLQMNSLKPEDTAVYYCAARTYWYPRRPIYDYWGQGTQVTVSS", "polyreactivity (PSR sort gate)": "high polyreactivity"},
      {"sequence": "QVQLVESGGGLVQAGGSLSLSCAASGRTFGPYAMGWYRKAPGKERELVAVISGRGTSTYYADSVKGRFTISRDNAKNTVYLQMNSLKPEDTAVYYCNADYGSWYWGFDYWGQGTQVTVSS", "polyreactivity (PSR sort gate)": "low polyreactivity"}
    ]}
  ]
}
